Results from PMC5342555, “ATAD2 is an epigenetic reader of newly synthesized histone marks during DNA replication” (Oncotarget, 2016).
Substitutions are numbered along the chain they refer to. Numbers in names are those of the source.

Columns and labels:
MCF7 cells [1] = test: EdU incorporation (DNA replication) by flow cytometry; assay type: cell-based; details: MCF7 overexpressing tagGFP-tagged ATAD2, gated by tagGFP; mean ± SEM, n = 3 independent experiments
Description: informed consent was obtained (Indivumed, Hamburg, by incubating cells with primary antibodies for 1 h at Germany; Asterand, Detroit USA; Provitro Berlin, RT followed by labelling with secondary antibodies Germany) of different indications. Immunohistochemistry conjugated with Alexa488 or Alexa647 for 30 min at was performed using EnVision System-HRP (DAB) from RT in dark. For analysis of TagGFP-ATAD2 expressing Dako (K4006 and K4010). Prior to immunostaining the cells GFP was stained by GFP antibody to enhance the slides were deparaffinized and rehydrated in xylene and fluorescence signal. DNA was stained by DAPI at 1 μg/ graded ethanol to distilled water. Antigen was retrieved by ml for 10 min at RT. For EdU (5-ethynyl-2'-deoxyuridine) incubating the tissue in boiling Target Retrieval Solution labelling cells were incubated in 10 μM EdU for 2h at 37 pH 6.0 (Dako S2031) for 40 min and letting them cool °C prior to fixation and staining was carried out according […]
Peroxidase-Block for 15 min at RT the slides were washed Fluor® 647 Flow Cytometry Assay Kit, ThermoFisher). twice in washing buffer (PBS with 0.05 % Tween 20) and Cells were analyzed by flow cytometry using a BD LSR incubated with primary antibodies in Antibody-Diluent II. All imaging and quantifications were performed using […]
(Dako S2022) for 90 min at RT. […]
Immunofluorescence of cells were saved for whole cell extract and the rest was subjected for subsequent fractionation. Whole cell extract […]
and fixed in 2 % FA for 10 min at RT. […] The image series were imported in Fiji and 100 % MeOH for 10 min at – 20 °C and incubated in average fluorescence was in the bleached region (F(t)ROI), […]

MCF7 cells [2] = test: Fluorescence recovery after photobleaching (FRAP); assay type: cell-based; details: TagGFP-tagged ATAD2 in MCF7, FRAP, 20 images; mean ± SEM
Description: Immunofluorescence of cells were saved for whole cell extract and the rest was subjected for subsequent fractionation. Whole cell extract
Cells were grown on Matrigel-coated coverslips and was prepared by incubating cells in ice-cold RIPA buffer fixed in 4 % formaldehyde in PBS for 15 min at RT or in (25 mM Tris·HCl pH 7.6, 150 mM NaCl, 1 % NP-40, 1 100 % methanol for 7 min at -20 °C. After removing the % sodium deoxycholate, 0.1 % SDS) supplemented with residual FA or methanol by washing in PBS cells were protease inhibitor cocktail (Roche) for 10 min on ice and permeabilized in blocking solution (10 % goat serum sonicated at medium power, 0.5 intervals in BIORUPTOR and 0.3 % Triton X-100 in PBS) for 10 min at RT and for 3 min at 4 °C. Soluble lysate was recovered by incubated with primary antibodies in blocking solution. removing insoluble fractions after centrifugation at 20000 Following the removal of unbound antibodies by washing x g for 10 min 5 to 20 μg of lysates were used for SDS gel in PBS cells were incubated with secondary antibodies electrophoresis and Western blot. conjugated with Alexa Fluor 488, 555 or 647 (Invitrogen), washed and mounted on slides in presence of DAPI for Fluorescence recovery after photobleaching visualization of nucleus. Images were acquired using an (FRAP) inverted Zeiss LSM700 confocal microscope using a 488 nm Diode-Pumped Solid State Laser with a 63X, 1.3 N.A. FRAP experiment was performed as previously oil-immersion objective. For EdU labelling cells were described with minor modifications. […]
and fixed in 2 % FA for 10 min at RT. […] The image series were imported in Fiji and 100 % MeOH for 10 min at – 20 °C and incubated in average fluorescence was in the bleached region (F(t)ROI), stain buffer with 5 % normal goat serum for 10 min at the total cell nucleus (F(t)total) and a background (F(t)BG) RT for blocking. Then indirect staining was performed were determined. The relative fluorescence intensity

B1: WT: TagGFP-tagged WT ATAD2 expressed in MCF7 cells (protein)
chain: MVVLRSSLELHNHSAASATGSLDLSSDFLSLEHIGRRRLRSAGAAQKKPAATTAKAGDGSSVKEVETYHRTRALRSLRKDAQNSSDSSFEKNVEITEQLANGRHFTRQLARQQADKKKEEHREDKVIPVTRSLRARNIVQSTEHLHEDNGDVEVRRSCRIRSRYSGVNQSMLFDKLITNTAEAVLQKMDDMKKMRRQRMRELEDLGVFNETEESNLNMYTRGKQKDIQRTDEETTDNQEGSVESSEEGEDQEHEDDGEDEDDEDDDDDDDDDDDDDDEDDEDEEDGEEENQKRYYLRQRKATVYYQAPLEKPRHQRKPNIFYSGPASPARPRYRLSSAGPRSPYCKRMNRRRHAIHSSDSTSSSSSEDEQHFERRRKRSRNRAINRCLPLNFRKDELKGIYKDRMKIGASLADVDPMQLDSSVRFDSVGGLSNHIAALKEMVVFPLLYPEVFEKFKIQPPRGCLFYGPPGTGKTLVARALANECSQGDKRVAFFMRKGADCLSKWVGESERQLRLLFDQAYQMRPSIIFFDEIDGLAPVRSSRQDQIHSSIVSTLLALMDGLDSRGEIVVIGATNRLDSIDPALRRPGRFDREFLFSLPDKEARKEILKIHTRDWNPKPLDTFLEELAENCVGYCGADIKSICAEAALCALRRRYPQIYTTSEKLQLDLSSINISAKDFEVAMQKMIPASQRAVTSPGQALSTVVKPLLQNTVDKILEALQRVFPHAEFRTNKTLDSDISCPLLESDLAYSDDDVPSVYENGLSQKSSHKAKDNFNFLHLNRNACYQPMSFRPRILIVGEPGFGQGSHLAPAVIHALEKFTVYTLDIPVLFGVSTTSPEETCAQVIREAKRTAPSIVYVPHIHVWWEIVGPTLKATFTTLLQNIPSFAPVLLLATSDKPHSALPEEVQELFIRDYGEIFNVQLPDKEERTKFFEDLILKQAAKPPISKKKAVLQALEVLPVAPPPEPRSLTAEEVKRLEEQEEDTFRELRIFLRNVTHRLAIDKRFRVFTKPVDPDEVPDYVTVIKQPMDLSSVISKIDLHKYLTVKDYLRDIDLICSNALEYNPDRDPGDRLIRHRACALRDTAYAIIKEELDEDFEQLCEEIQESRKKRGCSSSKYAPSYYHVMPKQNSTLVGDKRSDPEQNEKLKTPSTPVACSTPAQLKRKIRKKSNWYLGTIKKRRKISQAKDDSQNAIDHKIESDTEETQDTSVDHNETGNTGESSVEENEKQQNASESKLELRNNSNTCNIENELEDSRKTTACTELRDKIACNGDASSSQIIHISDENEGKEMCVLRMTRARRSQVEQQQLITVEKALAILSQPTPSLVVDHERLKNLLKTVVKKSQNYNIFQLENLYAVISQCIYRHRKDHDKTSLIQKMEQEVENFSCSR
modifications: left off: tagGFP, end not stated, kept
notes: TagGFP-tagged WT ATAD2 expressed in MCF7 cells
- EdU incorporation (normalized to control) (MCF7 cells [1]): 0.75 ± 0.03
- half recovery time (recovery t1/2) (MCF7 cells [2]): 17.740 s

B2: ATPase mut: TagGFP-tagged ATPase mutant ATAD2 (K473T, E532Q) expressed in MCF7 cells (protein)
chain: B1 chain with K473T, E532Q
modifications: left off: tagGFP, end not stated, kept
notes: TagGFP-tagged ATPase mutant ATAD2 (K473T, E532Q) expressed in MCF7 cells
- EdU incorporation (normalized to control) (MCF7 cells [1]): 0.38 ± 0.09
- half recovery time (recovery t1/2) (MCF7 cells [2]): 2.514 s

B3: BD mut: TagGFP-tagged BD mutant ATAD2 (V1013A, Y1021A, Y1063A, I1074A) expressed in MCF7 cells (protein, UniProt Q6PL18 1-1390, looked up, variant V1013A Y1021A Y1063A I1074A)
ATPase family AAA …: B1 chain with V1013A, Y1021A, Y1063A, I1074A
modifications: TagGFP tag
notes: TagGFP-tagged BD mutant ATAD2 (V1013A, Y1021A, Y1063A, I1074A) expressed in MCF7 cells
- EdU incorporation (normalized to control) (MCF7 cells [1]): 0.5 ± 0.10
- half recovery time (recovery t1/2) (MCF7 cells [2]): 7.951 s
